Measured values published in patent publication US20240002477A1 (UNIVERSITY OF CHICAGO, published 2024).
Read-outs that look alike come from different tables or passages of the source.

Assays:
[1] = target: SARS-CoV-2 spike receptor binding domain (SARS-CoV-2, UniProt P0DTC2 319-541)
SARS-CoV-2 ORF8 protein = target: T1, SARS-CoV-2 ORF8 protein (SARS-CoV-2, UniProt P0DTC8 16-121); test: mAb table, Specificity column (recombinant IgG1; ELISA)
T1 construct: domain: Ig-like domains; also called open reading frame 8

[2] = target: T2, SARS-CoV-2 open reading frame 8 protein (SARS-CoV-2, UniProt P0DTC8 16-121)
T2 construct: domain: Ig-like domain; also called ORF8

[3] = target: SARS-CoV-2 spike receptor binding domain (SARS-CoV-2, UniProt P0DTC2 319-541); remark: listed apart in the source

T1 sequence (P0DTC8 16-121, tags left off): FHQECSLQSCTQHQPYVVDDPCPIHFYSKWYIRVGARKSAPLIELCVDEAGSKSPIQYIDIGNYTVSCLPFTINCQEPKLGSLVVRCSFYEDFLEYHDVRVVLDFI
T2 sequence (P0DTC8 16-121, tags left off): as above

B1: S144-1079 (antibody, V domains shown)
VH: QVQLVQSGAEVKKPGSSVKVSCKASGDTFGSYSITWVRQAPGQGLEWMGRIIPVLGIANYAQKFQGRVTITADKSTSTAYMELSSLRSEDTAVYYCAGGGCSGGNCYSWYNWFDPWGQGSLVTVSS
VL: EIVLTQSPGTLSLSPGERATLSCRASQSVSSNYLAWYQQKPGQAPRLLIYGASSRATGIPERFSGSGSGTDFTLTISRLEPEDFAVYYCQQYGRSPYTFGQGTKLEIK
B1: binds [1].

B2: S144-175 (antibody, V domains shown)
VH: QVQLVQSGAEVKKPGASVKVSCKASGYTFTGYYMHWVRQAPGQGLEWMGRINPNSGGTNFAQRFQGRVSMTRDTSISTAYMELSSLRSDDTAVYYCARGAKFEHLPFDIWGQGTMVTVSS
VL: QSMLTQPPSASGTPGQRVTISCSGSSSNIGSNYVYWYQQLPGTAPKLLIYRNNQRPSGVPDRFSGSKSGTSASLAISGLRSEDEADYYCAAWDDRRWVFGGGTKLTVL
notes: recombinant human IgG1
B2: binds (SARS-CoV-2 ORF8 protein).

B3: S144-175 (antibody, V domains shown)
VH: B2 VH
VL: B2 VL
B3: binds [2].

B4: S144-208 (antibody, V domains shown)
VH: not shown
VL: QSALTQPRSVSGSPGQSVTISCTGTSSDVGGYKYVSWYQQHPGKAPKLMIYDVSKRPSGVPDRFSGSKSGNTASLTISGLQAEDEGDYYCCSYAGTYSLVFGGGTKVTV
notes: recombinant human IgG1
B4: binds (SARS-CoV-2 ORF8 protein).

B5: S144-208 (antibody, V domains shown)
VH: not shown
VL: B4 VL
B5: binds [2].

B6: S144-741 (antibody, V domains shown)
VH: QVHLVQSGAEVKKPGASVKVSCKASGYTFTGYYMNWVRQAPGQGLEWMGRINPNSGGTNYAQKFQGRVTMTRDTSISTAYMELSRLRSDDAAVYYCARAERYSSSWYNLYYWGQGTLVTVSS
VL: not shown
notes: recombinant human IgG1
B6: binds (SARS-CoV-2 ORF8 protein).

B7: S144-741 (antibody, V domains shown)
VH: B6 VH
VL: not shown
B7: binds [2].

B8: S144-509 (antibody, V domains shown)
VH: EVQLVQSGAEVKKPGESLKISCKGSAYTFTTYWIGWVRQMPGKGLEWMGIIYPGDSDTRYSPSFQGQVTISADKSISTAYLQWSSLKASDTAMYYCARLLLVAGPFDYWGQGTLVTVSS
VL: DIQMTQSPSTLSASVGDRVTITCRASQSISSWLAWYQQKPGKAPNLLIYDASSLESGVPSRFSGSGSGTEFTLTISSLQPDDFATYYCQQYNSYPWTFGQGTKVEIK
B8: binds [1].

B9: S564-14 (antibody, V domains shown)
VH: EVQLVESGGGLVQPGGSLRLSCAASGLTFSSYWMSWARQAPGKGLEWVANIKKDGSEKYYVDSVKGRFTISRDNAKNSLYLQMNSLRVEDTAVYYCASEPPHYGGNSGAEYFQHWGQGTLVTVSS
VL: SYVLTQPPSVSVAPGKTARITCGGNNIGSKSVHWYQQRPGQAPVLVIYYDSDRPSGIPERFSGSNSGNTATLTISRVEAGDEADYYCQVWDSSSDHHYVFGTGTKVTVL
B9: binds [3].

B10: S144-588 (antibody, V domains shown)
VH: QLQLQESGPGLVKPSETLSLTCTVSGGSISSSSYYWGWIRQPPGKGLEWIGSIYYSGSTYYNPSLKSRFTISVDTSKNQFSLKLSSVTAADTAVYYCAAYQRKLGYCRGNSCFSCFDPWGQGTLVTVSS
VL: not shown
notes: recombinant human IgG1
B10: binds (SARS-CoV-2 ORF8 protein).

B11: S144-588 (antibody, V domains shown)
VH: B10 VH
VL: not shown
B11: binds [2].

B12: S144-69 (antibody, V domains shown)
VH: EVQLVQSGAEVKKPGESLKISCKGSGYSFTSYWIGWVRQMPGKGLEWMGIIYPGDSDTRYSPSFQGQVTISADKSITTAYLQWSSLKASDTAMYYCARTQTTNWFDSWGQGTLVTVSS
VL: DIQMTQSPSTLSVSVGDRVTITCRASQSVSSWLAWYQQKPGKAPKLLIYDASSLESGVPSRFSGSGSGTEFTLTISSLQPDDFATYYCQQYNSFYTFGQGTKLEIK
B12: binds [1].

B13: S564-287 (antibody, V domains shown)
VH: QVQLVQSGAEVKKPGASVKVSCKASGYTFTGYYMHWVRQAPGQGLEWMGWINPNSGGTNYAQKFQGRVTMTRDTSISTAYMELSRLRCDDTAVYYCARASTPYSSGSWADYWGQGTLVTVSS
VL: QSALTQPASVSGSPGQSITISCTGTSSDVGGYNYVSWYQQHPGKAPKLMIYDVSNRPSGVSNRFSGSKSGNTASLTISGLQAEDEADYYCSSYASSSTWVFGGGTKLTVL
notes: recombinant human IgG1
B13: binds (SARS-CoV-2 ORF8 protein).

B14: S144-67 (antibody, V domains shown)
VH: EVQLVQSGAEVKKPGESLKISCKGSGYSFTTYWIAWVRQMPGKGLEWVGIIYPDDSDTRYSPSFQGQVTISADKSIGTAYLQWSSLKASDTAMYYCARGQYYDFWSGAGGVDVWGQGTTVTVSS
VL: QSVLTQPPSVSGAPGQRVTISCTGSRSNIGAGYDVQWYQQVPGTAPKLLISGNSNRPSGVPDRFSGSKSGTSASLAITGLQAEDEADYYCQSYDSSLSGLRVFGGGTKLTVL
B14: binds [1].

B15: S144-843 (antibody, V domains shown)
VH: QVQLVESGGGVVQPGGSVRLSCAASGFDFTNNGMYWVRQAPGKGLEWVAFIRYDGNKQDYADSVKGRFTISRDNSKNTLYLQMSSLRPEDTAVYYCAKGVYTENYGWGQGTLVTVSS
VL: EIVLTQSPGTLSLSPGERATLSCRASQTVTSRYLAWYQQKPGQAPRLLIYGASTRATGIPDRFSGSGSGTDFTLTISRLEPEDFAVYYCQQYGNSPPYTFGQGTKLEIK
notes: recombinant human IgG1
B15: binds (SARS-CoV-2 ORF8 protein).

B16: S144-843 (antibody, V domains shown)
VH: B15 VH
VL: B15 VL
B16: binds [2].

B17: S144-1299 (antibody, V domains shown)
VH: QVQLQESGPGLVKPSETLSLTCTVSGGSISSYYWSWIRQPPGKGLEWIGYINYRGITNYNPSLKSRVTISVDMSKNQFSLKLSSVTAADTAVYSCARLAVASRGTVDYWGQGTLVTVSS
VL: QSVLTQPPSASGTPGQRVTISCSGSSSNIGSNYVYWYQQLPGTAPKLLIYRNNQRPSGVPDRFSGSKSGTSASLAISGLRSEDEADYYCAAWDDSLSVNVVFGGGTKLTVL
notes: recombinant human IgG1
B17: binds (SARS-CoV-2 ORF8 protein).

B18: S144-466 (antibody, V domains shown)
VH: EVQLVQSGAEVKKPGESLKISCKGSGYRFTRYWIGWVRQMPGKGLEWMGIIYLGDSETRYSPSFQGQVTISADNSISTAYLQWSSLKASDTAMYYCARSSNWNYGDYWGQGTLVTVSS
VL: DIQMTQSPSTLSASVGDRVTITCRASQSITSWLAWYQQKSGKAPKLLIYDASSLESGVPSRFSGSGSGTEFTLTISSLQPDDFATYYCQQYNSYPWTFGQGTKVEIK
B18: binds [1].

B19: S144-1406 (antibody, V domains shown)
VH: QVQLVQSGAEVKKPGASVKVSCKASGYTFTTYAMHWVRQAPGQRLEWMGWINAGNGNTKYSQNFQGRVTITRDTSASTAYMELSSLRSEDTAVYYCASLVGGDSSSWYDYMDVWGKGTTVTVSS
VL: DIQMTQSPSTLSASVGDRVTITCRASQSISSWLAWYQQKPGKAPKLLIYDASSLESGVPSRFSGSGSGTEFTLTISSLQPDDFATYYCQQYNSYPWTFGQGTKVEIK
B19: binds [3].
